This note sets out measurements from patent US20110045604A1.

The target of experiment [1] is SUMO-ARVCF peptide fusion protein (yeast). Description: SPR; linker mutant immobilised on Ni-NTA chip, SUMO-peptide fusion as analyte. In general terms: In SPR one partner is held on a chip, and binding of the other changes the refractive index at the surface.
For experiment [2] the target is unchanged. Description: SPR (BIAcore 2000); clamp immobilised on Ni-NTA chip, SUMO-peptide fusion as analyte.
For experiment [3], the target named is SUMO-ARVCF peptide fusion protein, Ala substitution at position -7 (yeast). Briefly: SPR, Ala scanning; reference wild-type ARVCF peptide.
The target of experiment [4] is SUMO-ARVCF peptide fusion protein, Ala substitution at position -5 (yeast). Described as above.
In experiment [5] the target is SUMO-ARVCF peptide fusion protein, Ala substitution at position -6 (yeast). The experiment is described as above.
Experiment [6] concerns the target SUMO-ARVCF peptide fusion protein, Ala substitution at position -4 (yeast). Described as above.
Experiment [7] deals with SUMO-ARVCF peptide fusion protein (yeast). Briefly: SPR; clamp immobilised on Ni-NTA chip, SUMO-peptide fusion as analyte.
Experiment [8] addresses SUMO-δ-catenin peptide fusion protein (yeast). Briefly: binding analysis of purified protein; reference ARVCF peptide.
Experiment [9] has the same target. Briefly: ratio of SPR Kd values, reference ARVCF peptide.
Experiment [10] deals with SUMO-ARVCF peptide fusion protein (yeast). Description: SPR; linker mutant against ePDZ-b with the GGSGG linker.

What is called Kd is a measure of binding affinity in units of concentration. A higher Kd goes with weaker binding. What is called koff is the first-order rate constant of dissociation. A lower koff goes with a long-lived complex. As a reminder, the kon is a measure of how fast the partners come together.

Sequence of ePDZ-b linker mutant GGSG (Q96RT1 other isoform, or with tags, fused parts or gaps, change not shown): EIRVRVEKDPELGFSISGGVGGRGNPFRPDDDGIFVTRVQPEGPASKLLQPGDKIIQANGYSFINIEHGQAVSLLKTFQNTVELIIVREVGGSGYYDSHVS
Sequence of ePDZ-a linker mutant GGS (Q96RT1 other isoform, or with tags, fused parts or gaps, change not shown): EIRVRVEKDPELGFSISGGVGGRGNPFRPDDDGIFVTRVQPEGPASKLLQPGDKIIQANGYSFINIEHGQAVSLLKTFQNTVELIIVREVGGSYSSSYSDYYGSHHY
Sequence of ePDZ-b linker mutant GGS (Q96RT1 other isoform, or with tags, fused parts or gaps, change not shown): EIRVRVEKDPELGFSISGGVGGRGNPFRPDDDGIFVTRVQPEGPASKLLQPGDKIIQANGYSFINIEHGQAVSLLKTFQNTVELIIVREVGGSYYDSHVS
Sequence of ePDZ-a linker mutant GG (Q96RT1 other isoform, or with tags, fused parts or gaps, change not shown): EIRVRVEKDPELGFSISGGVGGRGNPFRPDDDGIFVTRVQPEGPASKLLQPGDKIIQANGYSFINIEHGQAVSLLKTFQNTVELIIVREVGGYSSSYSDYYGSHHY
Sequence of ePDZ-a linker mutant GGSG (Q96RT1 other isoform, or with tags, fused parts or gaps, change not shown): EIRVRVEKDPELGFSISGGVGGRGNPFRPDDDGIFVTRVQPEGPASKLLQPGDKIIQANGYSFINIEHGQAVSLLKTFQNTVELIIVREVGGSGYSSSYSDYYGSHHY

Consider “ePDZ-a linker mutant GG (from UniProt Q96RT1 1321-1410) (designed binder)”, for which, in experiment [1], the Kd turned out to be 311 nM.
On the same count and under the same terms, for “ePDZ-a linker mutant GGS (from UniProt Q96RT1 1321-1410) (designed binder)” the value was 134 nM; for “ePDZ-a linker mutant GGSG (from UniProt Q96RT1 1321-1410) (designed binder)”, 117 nM.
Regarding “ePDZ-b (from UniProt Q96RT1 1321-1410) (designed binder)”, the Kd in [2] and in experiment [7] was 56 nM throughout. Moreover, the koff in experiment [2] was found to be 0.011 s⁻¹. In experiment [2], this substance showed an association rate constant (kon) of 190000 M⁻¹ s⁻¹. Also, the fold decrease in binding affinity against the wild-type ARVCF peptide in experiment [3], in experiment [4], in experiment [5] and in experiment [6] was > 5 fold throughout. Also, the ΔΔG upon Ala substitution of the ARVCF peptide is > 1 kcal/mol in [3], > 1 kcal/mol in experiment [4], > 1 kcal/mol in [5] and > 3 kcal/mol in [6]. In [8], the fold discrimination between the two targets stood at 200 fold. Further, the Specificity Index (Kd for δ-catenin / Kd for ARVCF) in [9] was > 446.
In the case of “ePDZ-b linker mutant GGS (from UniProt Q96RT1 1321-1410) (designed binder)”, the Kd in experiment [1] was > 5000 nM.
In turn, “ePDZ-b linker mutant GGSG (from UniProt Q96RT1 1321-1410) (designed binder)” had a Kd in experiment [1] of 412 nM. In addition, the fold reduction of binding affinity against the original linker in experiment [10] is 8 fold.
